Patent US20240239860

Molecular target: T1, thio GLP-1 (GLP-1 7-36 with a thioamide at the Ala8-Glu9 scissile bond)
T1 chain: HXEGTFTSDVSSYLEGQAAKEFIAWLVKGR

B1: dipeptidyl peptidase 4 (DPP-4) (protein)
chain: SRKTYTLTDYLKNTYRLKLYSLRWISDHEYLYKQENNILVFNAEYGNSSVFLENSTFDEFGHSINDYSISPDGQFILLEYNYVKQWRHSYTASYDIYDLNKRQLITEERIPNNTQWVTWSPVGHKLAYVWNNDIYVKIEPNLPSYRITWTGKEDIIYNGITDWVYEEEVFSAYSALWWSPNGTFLAYAQFNDTEVPLIEYSFYSDESLQYPKTVRVPYPKAGAVNPTVKFFVVNTDSLSSVTNATSIQITAPASMLIGDHYLCDVTWATQERISLQWLRRIQNYSVMDICDYDESSGRWNCLVARQHIEMSTTGWVGRFRPSEPHFTLDGNSFYKIISNEEGYRHICYFQIDKKDCTFITKGTWEVIGIEALTSDYLYYISNEYKGMPGGRNLYKIQLSDYTKVTCLSCELNPERCQYYSVSFSKEAKYYQLRCSGPGLPLYTLHSSVNDKGLRVLEDNSALDKMLQNVQMPSKKLDFIILNETKFWYQMILPPHFDKSKKYPLLLDVYAGPCSQKADTVFRLNWATYLASTENIIVASFDGRGSGYQGDKIMHAINRRLGTFEVEDQIEAARQFSKMGFVDNKRIAIWGWSYGGYVTSMVLGSGSGVFKCGIAVAPVSRWEYYDSVYTERYMGLPTPEDNLDHYRNSTVMSRAENFKQVEYLLIHGTADDNVHFQQSAQISKALVDVGVDFQAMWYTDEDHGIASSTAHQHIYTHMSHFIKQCFSLP
cleavage of Gly-Pro-pNA substrate by DPP-4: did not inhibit cleavage of Gly-Pro-pNA substrate at 100 µM
